According to PMC9173640, “PI Kinase-EhGEF2-EhRho5 axis contributes to LPA stimulated macropinocytosis in Entamoeba histolytica” (PLoS Pathogens, 2022):

Target: T1, GST-RBD (Rho binding domain of mRhotekin) ( (printed as mRhotekin), UniProt Q8C6B2 17-98)
T1 construct: also called RBD-GST; source: E. coli BL21(DE3), purified (GST-sepharose beads); construct a gift from Dr. Richard Cerione
T1 sequence (looked up): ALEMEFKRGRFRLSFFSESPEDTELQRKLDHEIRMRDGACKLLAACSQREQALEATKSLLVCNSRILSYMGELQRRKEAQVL
Assay: pull-down; GST-RBD/GST-PBD bound to sepharose beads incubated 2 hrs at 4°C with lysates (10 mM MgCl2, 5 mM EDTA) of serum starved HA-EhRho5 trophozoites, with or without 15 uM LPA for 15 mins, followed by 100 nM wortmannin or DMSO; blot with anti-HA
Details: one partner purified

B1: HA-EhRho5 (natural protein)
chain: not shown
notes: EhRho5 (EhRacD), Rho family GTPase of Entamoeba histolytica, Acc no; EHI_012240; PCR primers run from the ATG to the stop codon; cloned in EhEx-HA with SmaI-XhoI; Expressed under the amoebic cysteine synthase promoter; also called EhRacD; source: E. histolytica HM1:IMSS trophozoites, stably transfected (EhEx-HA), in lysate
- fold increase in binding after LPA treatment against untreated trophozoites: 7 fold
